How the values were obtained:
[1] = target: endogenous human LSR of PLC hepatoma cells (human) (UniProt Q86X29); experiment: cell-based or functional assay
[2] = target: human LSR α′ subunit expressed in CHO-K1 cells (human) (UniProt Q86X29); experiment: cell-based or functional assay
[3] = target: human LSR α′ subunit expressed in CHO-K1 cells (human) (UniProt Q86X29); experiment: cell-associated ^125I-leptin on CHO-K1 cells stably expressing LSR α′, 37° C., 2 h; Lineweaver-Burk transformation (FIG. 3C, inset)

endogenous human LSR of PLC hepatoma cells (human), sequence (Q86X29 whole entry): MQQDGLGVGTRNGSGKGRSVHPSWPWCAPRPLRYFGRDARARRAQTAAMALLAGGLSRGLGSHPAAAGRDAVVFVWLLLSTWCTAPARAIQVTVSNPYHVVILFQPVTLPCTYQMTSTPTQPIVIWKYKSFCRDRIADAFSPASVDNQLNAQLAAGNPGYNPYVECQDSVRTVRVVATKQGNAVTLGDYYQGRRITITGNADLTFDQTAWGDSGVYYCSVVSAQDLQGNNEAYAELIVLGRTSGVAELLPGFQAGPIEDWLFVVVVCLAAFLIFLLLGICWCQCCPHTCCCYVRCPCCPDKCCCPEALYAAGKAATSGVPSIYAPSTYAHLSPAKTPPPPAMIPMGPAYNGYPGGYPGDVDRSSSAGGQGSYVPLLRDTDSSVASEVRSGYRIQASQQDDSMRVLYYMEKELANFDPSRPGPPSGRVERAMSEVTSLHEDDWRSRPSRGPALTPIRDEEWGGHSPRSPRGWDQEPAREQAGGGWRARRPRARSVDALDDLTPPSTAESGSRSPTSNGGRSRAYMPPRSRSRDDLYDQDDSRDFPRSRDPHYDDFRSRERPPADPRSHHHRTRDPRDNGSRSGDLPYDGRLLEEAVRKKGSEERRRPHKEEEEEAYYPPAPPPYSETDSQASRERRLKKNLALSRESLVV
human LSR α′ subunit expressed in CHO-K1 cells (human), sequence (Q86X29 whole entry): as above

Row | ^125I-leptin degradation by PLC cells (TCA-soluble chloroform-insoluble products) [1] | ^125I-leptin degraded relative to that bound and internalized [2] | Kd [3] | acute leptin stimulation of oleate-induced ^125I-LDL binding in PLC cells preincubated 24 h with 200 ng/mL leptin: leptin concentration giving the maximal effect [1] | acute leptin stimulation of oleate-induced ^125I-LDL binding in PLC cells preincubated 24 h with 200 ng/mL leptin: reduction of the maximal effect [1] | oleate-induced LSR binding uptake and degradation of ^125I-LDL in PLC cells [1] | Substance
1 | > 10 ng/mL | 16% | 1.3 nM |  |  |  | ^125I-leptin (species not stated) (ligand)
2 |  |  |  | 100 ng/mL | 50% | > 10 ng/mL | recombinant human leptin (from UniProt P41159 22-167) (ligand)

Source: patent US20060030530A1
